Literature values as cited in PMC4048747.

Molecular target: IGF-1R (UniProt P08069)
UniProt P08069, sequence (P08069 31-736, chain 1 of 2): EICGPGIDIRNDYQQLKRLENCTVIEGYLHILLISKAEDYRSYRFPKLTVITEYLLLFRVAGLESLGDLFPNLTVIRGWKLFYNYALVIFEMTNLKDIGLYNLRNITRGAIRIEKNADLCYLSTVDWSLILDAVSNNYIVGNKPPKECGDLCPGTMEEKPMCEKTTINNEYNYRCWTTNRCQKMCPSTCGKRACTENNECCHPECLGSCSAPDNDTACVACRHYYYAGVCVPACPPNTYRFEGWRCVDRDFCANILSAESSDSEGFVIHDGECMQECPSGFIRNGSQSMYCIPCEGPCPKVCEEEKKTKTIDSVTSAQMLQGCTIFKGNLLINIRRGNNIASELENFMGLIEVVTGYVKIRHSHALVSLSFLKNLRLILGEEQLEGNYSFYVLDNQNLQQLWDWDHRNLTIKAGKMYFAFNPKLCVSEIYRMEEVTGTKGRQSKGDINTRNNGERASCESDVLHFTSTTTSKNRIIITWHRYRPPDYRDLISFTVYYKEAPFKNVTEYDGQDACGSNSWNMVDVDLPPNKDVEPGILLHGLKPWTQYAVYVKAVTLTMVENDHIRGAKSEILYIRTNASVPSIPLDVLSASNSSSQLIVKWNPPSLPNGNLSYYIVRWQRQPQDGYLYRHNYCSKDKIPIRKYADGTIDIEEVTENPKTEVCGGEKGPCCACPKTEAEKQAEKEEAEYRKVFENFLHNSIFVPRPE
UniProt P08069, sequence (P08069 741-935, chain 2 of 2): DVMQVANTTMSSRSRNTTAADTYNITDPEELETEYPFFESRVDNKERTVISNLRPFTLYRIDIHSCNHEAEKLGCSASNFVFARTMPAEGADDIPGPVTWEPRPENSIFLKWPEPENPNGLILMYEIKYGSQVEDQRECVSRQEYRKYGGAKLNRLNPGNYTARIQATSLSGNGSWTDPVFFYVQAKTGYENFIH

Kd: 18 nM
Substance: Decorin (from UniProt P07585)
